Where “and” joins values, the source holds several entries; their conditions need not be identical. Equal values may be shown once. Each block holds one binder with its values, some of them ahead of it.
Tests used:
[1] = target: T1, human CCR8 (human, UniProt P51685 1-355); assay: flow cytometry, HUT78 cells (native CCR8)
T1 construct: the cells are named under assay; also called hCCR8
Experimental: The same staining protocol was applied on human CCR8 transfected CHO cell line versus wild type CHO cell line, cutaneous T cell lymphoma HUT78 cell line and human activated T cell model.
(§1) Briefly, 1·10⁵ cells per well in a 96 well plate were incubated with a dilution of unconjugated anti-CCR8 mAb at 10 μg/mL then diluted at 1/3.33, 4 dilution points (during 30 min at 4° C.). […] To determine EC50 value, 8 concentrations of anti-CCR8 mAb were tested. Unbound antibodies were washed away with PBS (Invitrogen by Thermofisher Scientific, Illkirch-Graffenstaden, France) supplemented by 2% Fetal Bovine Serum (Invitrogen by Thermofisher Scientific, Illkirch-Graffenstaden, France) and 2 mM EDTA (Invitrogen by Thermofisher Scientific, Illkirch-Graffenstaden, France). Subsequently, cells are centrifuged (5 min at 400 g) and bound antibody is detected with F(ab′)₂-Goat anti-Mouse IgG (H+L) Cross-Adsorbed Secondary Antibody, Alexa Fluor 488 (dilution 1/500) (Invitrogen by Thermofisher Scientific, Illkirch-Graffenstaden, France) or with F(ab′)₂-Goat anti-Human IgG Fc Secondary Antibody, PE (Invitrogen by Thermofisher Scientific, Illkirch-Graffenstaden, France) (dilution 1/1000) at 4° C. for 30 min. Detection reagent is washed away and cells are centrifuged (5 min at 400 g) and resuspended in 30 μL PBS. Bound detection antibody is quantified on a MacsQuant16 (Miltenyi, Gladbach, Germany) (B1 or B2 channel, 5000 events per acquisition).

[2] = target: T1, human CCR8; assay: competition HTRF on HEK-293 cells with hCCR8; blocked ligand CCL1-AF647 [cont.]
[3] = target: T1, human CCR8; assay: flow cytometry, human activated T cells
Experimental: as §1
(§2) Binding characteristics of anti-CCR8 mAb cellular reactivity was further investigated by testing their binding to activated T cells.

[4] = target: pm5 (human, sulfated tyrosines at Y15 and Y17); assay: ELISA on coated peptide [cont.]
In short: (§3)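 Coat 500 ng/mL peptide (carbonate/bicarbonate). Add mAb, 1 μg/mL and 1/10 dilution, 90 min RT. Wash, TMB 15 min, read OD.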

[5] = target: pm6 (human, sulfated tyrosines at Y16 and Y17); assay: ELISA on coated peptide [cont.]
In short: as §3

[6] = target: pm3 (human, sulfated tyrosine at Y17); assay: ELISA on coated peptide [cont.]
In short: as §3

[7] = target: pm8 (human, sulfated tyrosines at Y15, Y16 and Y17); assay: ELISA on coated peptide [cont.]
In short: as §3

[8] = target: T1, human CCR8; assay: flow cytometry, human activated T cells pre-incubated with 200 nM hCCL1
Experimental: as §1, §2

[9] = target: T1, human CCR8; assay: cell-based or functional assay
[10] = target: T2, pm4 (human, sulfated tyrosine(s) among Tyr 15, Tyr 16, Tyr 17; marked only by underlining, lost in the text); assay: ELISA on coated peptide
Experimental: (§4) The specific binding properties of antibodies were evaluated by ELISA with coated CCR8 related peptides (500 ng/mL) in carbonate/bicarbonate buffer. Different peptides were used as described in Table 1 (see Example 1). Each anti-CCR8 mAb was tested at 1 μg/mL then diluted at 1/10. After an incubation at room temperature during 90 min, unbound mAbs were removed by washings. […] After washings, 3,3′,5,5′-tetramethylbenzidine (TMB) (Interchim, Montlugon, France) was added for 15 min. Then the optical density (OD) was determined by using a multiplate reader (Tecan, Lyon, France) and correlated with mAb reactivity on the panel of coated peptides.

[11] = target: T3, pm2 (human, sulfated tyrosine(s) among Tyr 15, Tyr 16, Tyr 17; marked only by underlining, lost in the text); assay: ELISA on coated peptide
Experimental: as §4

[12] = target: T4, pm1 (human, sulfated tyrosine(s) among Tyr 15, Tyr 16, Tyr 17; marked only by underlining, lost in the text); assay: ELISA on coated peptide
Experimental: as §4

[13] = target: T1, human CCR8; assay: cell-based or functional assay; remark: listed apart in the source
[14] = target: T1, human CCR8; assay: cell-based or functional assay; remark: listed apart in the source
[15] = target: T1, human CCR8; assay: cell-based or functional assay; remark: listed apart in the source
[16] = target: T2, pm4; assay: ELISA on coated peptide [cont.]
In short: as §3

[17] = target: T5, pwt1 (human); assay: ELISA on coated peptide [cont.]
T5 construct: also called unmodified peptide
In short: as §3

[18] = target: T3, pm2; assay: ELISA on coated peptide [cont.]
In short: as §3

[19] = target: T4, pm1; assay: ELISA on coated peptide [cont.]
In short: as §3

[20] = target: CCR8 SNAP-tag (human, UniProt P51685 1-355, SNAP-tag labelled with Lumi4-Terbium); assay: cell-based or functional assay
[21] = target: T1, human CCR8; assay: cell-based or functional assay; remark: listed apart in the source
[22] = target: T1, human CCR8; assay: flow cytometry, hCCR8 transfected CHOK1 cells
[23] = target: T1, human CCR8; assay: competition flow cytometry on hCCR8 transfected CHO cells; blocked ligand CCL1-AF647 [cont.]

Sequence of pm3 (human, sulfated tyrosine at Y17) (peptide, as listed by the source): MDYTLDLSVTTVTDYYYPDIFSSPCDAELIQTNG
T3 sequence (peptide, as listed by the source): as above
Sequence of pm5 (human, sulfated tyrosines at Y15 and Y17) (peptide, as listed by the source): as above
Sequence of pm6 (human, sulfated tyrosines at Y16 and Y17) (peptide, as listed by the source): as above
T2 sequence (peptide, as listed by the source): as above
T4 sequence (peptide, as listed by the source): as above
Sequence of pm8 (human, sulfated tyrosines at Y15, Y16 and Y17) (peptide, as listed by the source): as above
T5 sequence (peptide, as listed by the source): as above

B1: 3-77 (antibody, human IgG1, kappa)
heavy: not shown
light: DIVMTQAAPSLSVTPGESASISCTSSKSLLHSNGNTYLYWFLQKPGQSPQLLIYRMSNLASGVPDRFSGSGSGTAFTLKISRVEAEDVGVYYCMQHREYPFTFGSGTKLEIKRTVAAPSVFIFPPSDEQLKSGTASVVCLLNNFYPREAKVQWKVDNALQSGNSQESVTEQDSKDSTYSLSSTLTLSKADYEKHKVYACEVTHQGLSSPVTKSFNRGEC
notes: humanized, human IgG1 kappa
% of labelled cells [1]: 23% | IC50 (read off the curve) [2]: ~0.1 mg/L | % of labelled cells [3]: 79% | binding result [4]: binds | binding result [5]: binds | binding result [6]: binds | binding result [7]: binds | % of labelled cells [8]: 64% | hCCL1 (100 nM) residual response, Protocol #2, mAb 0.08 µg/mL [9]: 62% | hCCL1 (100 nM) residual response, Protocol #2, mAb 0.4 µg/mL [9]: 38% | hCCL1 (100 nM) residual response, Protocol #2, mAb 10 µg/mL [9]: 30% | hCCL1 (100 nM) residual response, Protocol #3, mAb 0.05 µg/mL [9]: 94% | hCCL1 (100 nM) residual response, Protocol #3, mAb 0.5 µg/mL [9]: 63% | hCCL1 (100 nM) residual response, Protocol #3, mAb 5 µg/mL [9]: 39% | binding result [10]: binds | binding result [11]: binds | binding result [12]: binds | IC50 (Gi2 BRET, pH 6.5) [13]: 0.018 µg/ml and 0.117 nM | IC50 (Gi2 BRET, pH 7.4) [13]: 0.029 µg/ml and 0.194 nM

B3: 3-81 (antibody, human IgG1, kappa, V domains shown)
VH: QVQLQQSGPEVVKPGASVKVSCKTSGYTFTEYTIHWVRQSHGQSLEWVGGINPNNGNTRYDQKFKGRVTITIDKSSSTAYMELRSLTSEDTAVYYCARVARSSGSGPYAMDYWGQGTTVTVSS
VL: DVVMTQSPLSLPVTLGDQASISCRCSQSLLHTNGDTYLHWYLQRPGQSPRLLIYKVSNRFSGVPDRFSGSGSGTDFTLKISRVEAEDVGVYFCSQSTHVPYTFGGGTKVEIKR
notes: humanized, human IgG1 kappa
% of labelled cells [1]: 88% | EC50 [1]: 200 pM | binding result [16]: binds | binding result [4]: binds | binding result [5]: binds | binding result [17]: binds | binding result [18]: binds | binding result [6]: binds | binding result [7]: binds | binding result [19]: binds | hCCL1 (100 nM) residual response, Protocol #2, mAb 0.08 µg/mL [9]: 77% | hCCL1 (100 nM) residual response, Protocol #2, mAb 0.4 µg/mL [9]: 66% | hCCL1 (100 nM) residual response, Protocol #2, mAb 10 µg/mL [9]: 41% | hCCL1 (100 nM) residual response, Protocol #3, mAb 0.05 µg/mL [9]: 73% | hCCL1 (100 nM) residual response, Protocol #3, mAb 0.5 µg/mL [9]: 52% | hCCL1 (100 nM) residual response, Protocol #3, mAb 5 µg/mL [9]: 37% | % of internalization at 1 µg/ml mAb (HTRF) [20]: 44% | % of internalization at 10 µg/ml mAb (HTRF) [20]: 36% | IC50 (Gi2 BRET, pH 6.5) [13]: 0.018 µg/ml and 0.117 nM | IC50 (Gi2 BRET, pH 7.4) [13]: 0.034 µg/ml and 0.224 nM

Other lines, results leading:

ADCC % Max lysis, NK cells Donor 1 [14]: 30% | ADCC % Max lysis, NK cells Donor 2 [14]: 28% | ADCC EC50, NK cells Donor 1 [14]: 6.43 pM | ADCC EC50, NK cells Donor 2 [14]: 0.42 pM | % of labelled cells [1]: 32% | IC50 (read off the curve) [2]: ~0.1 mg/L | binding result [4]: binds | binding result [5]: binds | binding result [6]: binds | binding result [7]: binds | ADCP % Max of phagocytosis, monocyte-derived macrophages Donor 9 [15]: 9.65% | hCCL1 (100 nM) residual response, Protocol #2, mAb 0.08 µg/mL [9]: 74% | hCCL1 (100 nM) residual response, Protocol #2, mAb 0.4 µg/mL [9]: 54% | hCCL1 (100 nM) residual response, Protocol #2, mAb 10 µg/mL [9]: 40% | hCCL1 (100 nM) residual response, Protocol #3, mAb 0.05 µg/mL [9]: 89% | hCCL1 (100 nM) residual response, Protocol #3, mAb 0.5 µg/mL [9]: 63% | hCCL1 (100 nM) residual response, Protocol #3, mAb 5 µg/mL [9]: 51% | binding result [10]: binds | binding result [11]: binds | binding result [12]: binds | IC50 (Gi2 BRET, pH 6.5) [13]: 0.025 µg/ml and 0.165 nM | IC50 (Gi2 BRET, pH 7.4) [13]: 0.035 µg/ml and 0.232 nM
B2: 3-78 (antibody, human IgG1, kappa)
heavy: not shown
light: B1 light
notes: humanized

Top plateau value (% of hCCL1 100 nM) with 5 µg/mL mAb, Protocol #3 [21]: 2880% | binding result [4]: binds | binding result [5]: binds | binding result [6]: binds | binding result [7]: binds | hCCL1 (100 nM) residual response, Protocol #3, mAb 0.05 µg/mL [9]: 102% | hCCL1 (100 nM) residual response, Protocol #3, mAb 0.5 µg/mL [9]: 98% | hCCL1 (100 nM) residual response, Protocol #3, mAb 5 µg/mL [9]: 84% | IC50 (Gi2 BRET, pH 6.5) [13]: 0.678 µg/ml and 4.52 nM | IC50 (Gi2 BRET, pH 7.4) [13]: 3.43 µg/ml and 22.9 nM | % positive cells [22]: 76.2% | MFI fold change to isotype ctrl [22]: 8.37 fold | IC50 (read off the curve) [23]: ~0.7 mg/L
B4: 3-43 (antibody, V domains shown)
VH: QVQLQQPGAELVKPGASVKMSCKATGYTFTGYNMHWVKQTPGQGLEWIGAISPGKGDTSYNLKFKGKATLTTDKSSSTAYMQLSSLTSADSAVYYCARSGGTPFAYWGQGTLVTVSA
VL: DVVMTQTPLSLPVSLGDQASISCRSSQSLVHSNGDTYLYWYLQKPGQSPKLLIYKVSNRFSGVPDRFSGSGSGTDFTLKINRVEAEDLGVYFCSQSTHVPYTFGGGTKLEIK
